# Reference: patent publication US20240417484A1, “ANTIGEN-BINDING POLYPEPTIDES AGAINST CD73” (UNIVERSITÄTSKLINIKUM HAMBURG-EPPENDORF, priority 2021, published 2024)
# T1: soluble human CD73 (Homo sapiens, UniProt P21589)
# T1 construct: The ectodomain of CD73 (aa 27-549) was expressed as a recombinant protein with a C-terminal His6× tag; His6 (C); made in house; host or cells: transiently transfected HEK cells
# T1 sequence (P21589 27-549): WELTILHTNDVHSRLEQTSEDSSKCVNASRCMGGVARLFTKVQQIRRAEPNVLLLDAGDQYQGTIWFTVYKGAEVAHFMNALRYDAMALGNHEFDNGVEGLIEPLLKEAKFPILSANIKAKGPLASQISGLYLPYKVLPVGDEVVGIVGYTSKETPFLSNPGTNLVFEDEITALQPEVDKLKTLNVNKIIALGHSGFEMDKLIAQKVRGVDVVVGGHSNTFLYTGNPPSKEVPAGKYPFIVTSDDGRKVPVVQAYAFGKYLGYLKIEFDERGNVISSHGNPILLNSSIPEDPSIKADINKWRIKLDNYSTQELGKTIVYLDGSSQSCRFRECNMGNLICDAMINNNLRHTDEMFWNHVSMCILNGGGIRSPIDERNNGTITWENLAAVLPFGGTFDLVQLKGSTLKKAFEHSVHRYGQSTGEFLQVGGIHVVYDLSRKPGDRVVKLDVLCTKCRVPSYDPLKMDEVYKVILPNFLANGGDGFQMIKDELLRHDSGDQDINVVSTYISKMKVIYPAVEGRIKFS
# T2: CD73-expressing human AML-OCI3 cells (Homo sapiens, UniProt P21589)
# T2 construct: CD73-expressing human AML-OCI3 cells (AML cell line); endogenous in cells; host or cells: OCI-AML3 human AML cell line
# T2 sequence (P21589 27-549): T1 sequence (P21589 27-549)
# B1: SB116-188-Alb: biparatopic SB116-188-Alb trimers, anti-CD73 nanobody heterotrimer (protein)
# chain (part 1 of 2): QVKLQESGGGRVQTGGSLRLSCAASGISFSITTMYWYRQAPGEQRQLVALITDRGNTYYVDSVKGRFTISRDDSKNTVYLQMNDLKPEDTAVYFCNSIPGNDWGQGTQVTVSS
# chain (part 2 of 2): QVQLVESGGGLVQAGGSLRLSCAASGFTFINYHMSWLRQAPGKEREFVAEIHSRGDITSYTNSVKGRFTISRDNAKNTVYLQMNSLKPEDTAVYYCARSRDLFNEGEYDYWGRGTQVTVSS
# modifications: left off: small tags and cut ends; another chain or arm of the molecule
# notes: biparatopic SB116-188-Alb trimers, anti-CD73 nanobody heterotrimer
# Tests used:
# [1] = molecular target: T1, soluble human CD73; assay: AMP degradation by soluble CD73, luminometric AMPglow assay; format: biochemical; conditions: CD73 present as soluble enzyme; compared with dimeric SB116 or SB188 Fc constructs
# Procedure: (§1) Soluble recombinant human CD73 or CD73-expressing human […] cells were incubated with CD73-specific dimeric clones SB116-rbFc, SB188-rbFc, biparatopic SB116-188-Alb trimers or with non-binding L-10e-rbFc clone (control). AMP was added and AMP degradation was measured using the luminometric AMPglow assay. Data analyses were performed using Prism (Graphpad).
# [2] = molecular target: T2, CD73-expressing human AML-OCI3 cells; assay: AMP degradation by cell bound CD73, luminometric AMPglow assay; format: cell-based; conditions: CD73 expressed on the cell surface of OCI-AML3 cells; compared with dimeric SB116 or SB188 Fc constructs
# Procedure: AMP was added and AMP degradation was measured using the luminometric AMPglow assay. Data analyses were performed using Prism (Graphpad).
# as §1
molecule,measurement,setting,value
B1,blockade of CD73-mediated AMP degradation,[1],enhanced blockade of CD73-mediated AMP degradation when compared to dimeric SB116 or SB188 Fc constructs
same,blockade of CD73-mediated AMP degradation,[2],less potent compared to dimeric SB116 or SB188 Fc constructs
